Where no end group is shown, it is not given here.
T1: PTH1R in cell membranes, G protein-uncoupled conformation (R0) (UniProt Q03431 27-593, limits assumed)
T1 construct: whole, on cells; Cell membranes, not intact cells; R0 state studied by including GTPγS in the reactions; also called G protein-uncoupled receptor
T1 sequence (looked up): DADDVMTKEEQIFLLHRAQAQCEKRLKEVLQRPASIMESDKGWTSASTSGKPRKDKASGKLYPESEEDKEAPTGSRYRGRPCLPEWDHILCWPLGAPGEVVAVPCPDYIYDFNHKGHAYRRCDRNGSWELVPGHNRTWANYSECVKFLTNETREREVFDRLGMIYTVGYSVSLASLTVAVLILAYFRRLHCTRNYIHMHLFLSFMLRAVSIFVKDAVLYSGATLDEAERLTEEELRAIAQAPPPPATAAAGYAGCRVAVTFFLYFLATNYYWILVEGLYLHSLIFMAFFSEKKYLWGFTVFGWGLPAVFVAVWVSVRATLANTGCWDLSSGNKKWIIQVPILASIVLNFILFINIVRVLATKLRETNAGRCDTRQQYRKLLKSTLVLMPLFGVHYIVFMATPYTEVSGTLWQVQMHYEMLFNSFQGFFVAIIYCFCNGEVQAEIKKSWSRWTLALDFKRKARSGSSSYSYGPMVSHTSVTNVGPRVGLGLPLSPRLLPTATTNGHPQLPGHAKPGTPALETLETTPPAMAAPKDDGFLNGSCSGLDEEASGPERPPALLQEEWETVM

T2: MBP-PTH1R ECD-(His)6 fusion protein (UniProt Q03431 29-187)
T2 construct: range 29-187; Expressed in E. coli, disulfide shuffled in vitro; also called MBP-PTH1R ECD-H6; MBP-PTH1R ECD fusion protein
T2 sequence: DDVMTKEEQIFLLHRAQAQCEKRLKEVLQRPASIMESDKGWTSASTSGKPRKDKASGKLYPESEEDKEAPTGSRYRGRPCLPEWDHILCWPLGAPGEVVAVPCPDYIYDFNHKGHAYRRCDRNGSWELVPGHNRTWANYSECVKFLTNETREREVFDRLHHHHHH

T3: hPTH1R transiently expressed in COS-1 cells (human, UniProt Q03431 27-593)
T3 sequence (looked up): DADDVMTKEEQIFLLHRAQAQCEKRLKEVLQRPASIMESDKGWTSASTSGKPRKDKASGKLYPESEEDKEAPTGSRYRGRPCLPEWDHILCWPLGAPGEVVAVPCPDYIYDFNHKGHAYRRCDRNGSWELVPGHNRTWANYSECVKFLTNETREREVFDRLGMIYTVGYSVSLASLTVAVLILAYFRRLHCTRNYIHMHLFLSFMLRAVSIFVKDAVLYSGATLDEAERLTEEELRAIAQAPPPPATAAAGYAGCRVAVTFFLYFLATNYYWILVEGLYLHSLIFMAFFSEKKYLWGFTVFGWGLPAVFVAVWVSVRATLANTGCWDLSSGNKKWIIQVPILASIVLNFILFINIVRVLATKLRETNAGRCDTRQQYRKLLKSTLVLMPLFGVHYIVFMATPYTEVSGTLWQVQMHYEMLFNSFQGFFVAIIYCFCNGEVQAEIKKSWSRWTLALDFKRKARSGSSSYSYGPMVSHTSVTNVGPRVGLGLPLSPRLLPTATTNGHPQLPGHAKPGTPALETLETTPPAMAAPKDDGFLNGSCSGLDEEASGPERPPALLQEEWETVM


Columns and labels:
[1] = biological target: T4, PTH1R in cell membranes, G protein-coupled conformation (RG) (UniProt Q03431 27-593); test: competition binding, PTH1R in cell membranes, RG state (dominant negative Gαs), n = 3
T4 construct: whole, on cells; Cell membranes, not intact cells; RG state studied by co-expressing the receptor with dominant negative Gαs; also called G protein-coupled receptor

[2] = biological target: T1, PTH1R in cell membranes, G …; test: ratio of IC50 at R0 to IC50 at RG, cell membranes
[3] = biological target: T1, PTH1R in cell membranes, G …; test: competition binding, PTH1R in cell membranes, R0 state (GTPγS), n = 3
[4] = biological target: T2, MBP-PTH1R ECD-(His)6 fusion protein; test: AlphaScreen competition against biotin-PTH(7-34)NH2 (23 nM) for MBP-PTH1R ECD-H6 (23 nM)
Protocol: (§1) ECD-peptide binding assays. The binding of peptides to the MBP-PTH1R ECD-H6 fusion protein was assessed using an AlphaScreen assay (Perkin-Elmer). […] The pre-coupling reactions were mixed, un-labeled competitor peptides were added as indicated, and the reactions were incubated 4 to 5 hrs to reach equilibrium. Photon counts were recorded in 384-well optiplates using an Envision 2104 plate reader (Perkin-Elmer). Prism 5.0 software (GraphPad Software, San Diego) was used to fit the data to a fixed-slope dose-response inhibition equation for determination of IC50 values. Real-time analysis of the binding of peptides to the isolated PTH1R ECD using the Octet Red system (ForteBio) was performed as described in below.

[5] = biological target: T2, MBP-PTH1R ECD-(His)6 fusion protein; test: AlphaScreen competition; competitor titrated against biotin-PTH(7-34)NH2 (23 nM) on MBP-PTH1R ECD (23 nM) [panel A]
Protocol: as §1

[6] = biological target: T2, MBP-PTH1R ECD-(His)6 fusion protein; test: AlphaScreen competition; competitor titrated against biotin-PTH(7-34)NH2 (23 nM) on MBP-PTH1R ECD (23 nM) [panel B]
Protocol: as §1

[7] = biological target: T3, hPTH1R transiently expressed in COS-1 …; test: cell-based or functional assay

IC50 [1] [nM]	IC50 Log M [1] [Log M]	RO/RG [2] [fold]	IC50 [3] [nM]	IC50 Log M [3] [Log M]	IC50 [4] [nM]	IC50 (read off the curve) [5] [nM]	IC50 (read off the curve) [6] [nM]	EC50, cAMP accumulation dose-response [7] [nM]	maximal cAMP level relative to wt peptide [7] [%]	Binder
0.07	-10.1	586	41	-7.4	–	–	–	–	–	AVSEHQLLHDKGKSIQDLRRRFWLHHKLAEVHTA-NH2 [PTHrP(1-34)NH2 [F23′W/L27′K/I28′L/I31′V]]
–	–	–	–	–	~1000	~800	–	–	–	GKHLNSMERVEWLRKKLQDVHNF-NH2 [PTH(12-34)NH2]
–	–	–	–	–	~2000	–	~1000	–	–	GKSIQDLRRRFFLHHLIAEIHTA-NH2 (also called C-terminally amidated 12-34 fragment of PTHrP) [PTHrP(12-34)NH2]
–	–	–	–	–	~2000	–	~2000	–	–	GKSIQDLRRRFFLHHLIAEIHTA-OH (Free C-terminal carboxylic acid) [PTHrP(12-34)OH]
0.68	-9.3	36.8	25	-7.6	–	–	–	–	–	SVSEIQLMHNLGKHLNSMERVEWLRKLLQDIHNF-NH2 [PTH(1-34)NH2 [K27L/V31I]]
0.1	-10	45	4.5	-8.4	–	–	–	–	–	SVSEIQLMHNLGKHLNSMERVEWLRKKIQDVHNF-NH2 [PTH(1-34)NH2 [L28I]]
0.23	-9.7	59	13.5	-7.9	–	–	–	–	–	SVSEIQLMHNLGKHLNSMERVEFLRKKLQDVHNF-NH2 [PTH(1-34)NH2 [W23F]]
0.2	-9.7	190	38	-7.4	–	–	–	–	–	SVSEIQLMHNLGKHLNSMERVEFLRKKIQDVHNF-NH2 [PTH(1-34)NH2 [W23F/L28I]]
0.31	-9.6	135	42	-7.4	–	–	–	–	–	SVSEIQLMHNLGKHLNSMERVEWLRKKIQDIHNF-NH2 [PTH(1-34)NH2 [L28I/V31I]]
0.21	-9.7	386	81	-7.1	–	–	–	0.0415	~80	SVSEIQLMHNLGKHLNSMERVEFLRKKLQDIHNF-NH2 (also called PTH(W23′F/V31′I)) [PTH(1-34)NH2 [W23′F/V31′I]]
0.78	-9.2	68	53	-7.3	–	–	–	–	–	SVSEIQLMHNLGKHLNSMERVEFLRKLIQDIHNF-NH2 [PTH(1-34)NH2 [W23F/K27L/L28I/V31I]]
0.33	-9.6	26.4	8.7	-8.1	–	–	–	–	–	SVSEIQLMHNLGKHLNSMERVEFLRKLLQDVHNF-NH2 [PTH(1-34)NH2 [W23F/K27L]]
0.31	-9.6	110	34	-7.5	–	–	–	–	–	SVSEIQLMHNLGKHLNSMERVEWLRKKLQDIHNF-NH2 [PTH(1-34)NH2 [V31I]]
0.54	-9.3	11.9	6.4	-8.2	–	–	–	–	–	SVSEIQLMHNLGKHLNSMERVEWLRKLLQDVHNF-NH2 (also called 07-12-12-07-SBSL) [PTH(1-34)[K27L]NH2]
